Source: patent US20250352630A1

Target: Native MsrA/B on the surface of N. gonorrhoeae 1291 cells (N. gonorrhoeae strain 1291) (UniProt P14930)
Test: whole cell ELISA, N. gonorrhoeae 1291 strains

Sequence of Native MsrA/B on the surface of N. gonorrhoeae 1291 cells (N. gonorrhoeae strain 1291) (P14930 1-519, tags or fused parts left off): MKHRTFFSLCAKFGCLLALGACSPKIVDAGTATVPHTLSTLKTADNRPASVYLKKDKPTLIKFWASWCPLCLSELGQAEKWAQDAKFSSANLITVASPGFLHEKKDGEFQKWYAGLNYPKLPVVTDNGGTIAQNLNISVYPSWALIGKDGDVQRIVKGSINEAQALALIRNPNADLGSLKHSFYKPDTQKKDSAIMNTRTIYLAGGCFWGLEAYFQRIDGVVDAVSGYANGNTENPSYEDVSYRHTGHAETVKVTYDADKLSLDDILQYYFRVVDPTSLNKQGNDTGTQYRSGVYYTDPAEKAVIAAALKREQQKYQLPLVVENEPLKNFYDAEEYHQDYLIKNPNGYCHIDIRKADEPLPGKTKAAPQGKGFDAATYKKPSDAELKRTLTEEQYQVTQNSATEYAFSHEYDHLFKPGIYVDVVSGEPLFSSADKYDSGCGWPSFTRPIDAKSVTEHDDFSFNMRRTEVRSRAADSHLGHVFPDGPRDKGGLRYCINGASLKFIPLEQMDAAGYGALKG

In the case of Pre-immune mouse sera (antibody), the ELISA titre vs whole cells is reported as under 200 titre.
